Biological target: Human PLA2G1B (phospholipase A2 group 1B), active form (human) (UniProt P04054)

Recombinant HIV-1 gp41 MN protein (gp41 MN (565-771Delta642-725)) (from UniProt P05877 565-771) (domain or fragment)
PLA2G1B enzymatic activity ([3H]AA release from labeled human CD4 T cells), PLA2G1B 63 nM, gp41 0.68 nM-340 nM: > 20 fold
